Numbered stars: 1 amine (or outer) side, 2 acyl side, 3 side chain; on linkers, the order of the positions; unused ones are H or OH. Bridge positions count the residues as written; N and C are the ends. Ends that are not written are not given here. Phenylene(1,4-NHCOCH2)2 = O=C(C[*:1])Nc1ccc(NC(=O)C[*:2])cc1

This assay has as its target T1, MDM2 (Homo sapiens, UniProt Q00987).
T1 construct: made in house
Nature of the assay: Naive Library Presenter Screening (phage, NGS), MDM2. It counts as binding. Particulars: for interaction data, BLANK: Blank = Media only.

Where [1] appears, read: MDM2 clusters (C82, C85), first column.
Where [2] appears, read: MDM2 clusters (C82, C85), second column.
Setting [3] is: MDM2 clusters (C82, C85), target concentration 10 nM.
The mark [4] stands for this setting: MDM2 clusters (C82, C85), target concentration 30 nM.
Where [5] appears, read: MDM2 clusters (C82, C85), target concentration 100 nM.
The mark [6] stands for this setting: MDM2 clusters (C82, C85), target concentration 300 nM.
The mark [7] stands for this setting: MDM2 clusters (C82, C85), target concentration 1000 nM, first column.
Setting [8] is: MDM2 clusters (C82, C85), target concentration 1000 nM, second column.
Where [9] appears, read: MDM2 target concentration 10 nM.
Where [10] appears, read: MDM2 target concentration 30 nM.
Where [11] appears, read: MDM2 target concentration 100 nM.
Setting [12] is: MDM2 target concentration 300 nM.
The mark [13] stands for this setting: MDM2 target concentration 1000 nM, first column.
Setting [14] is: MDM2 target concentration 1000 nM, second column.

T1 sequence (Q00987 25-109): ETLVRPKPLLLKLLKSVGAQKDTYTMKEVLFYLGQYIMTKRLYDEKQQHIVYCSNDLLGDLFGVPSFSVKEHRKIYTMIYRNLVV

“DPAVTECFQAAWRCMVM (linker 7-14 via Phenylene(1,4-NHCOCH2)2 (inferred); not fully specified (C-terminus))”: the “interaction data, BLANK” value turned out to be 0 under setting [1] and 0 under setting [2]. Further, the “interaction data at Target Concentration 10” value under setting [3] is 0. In addition, the “interaction data at Target Concentration 30” value under setting [4] turned out to be 77. The “interaction data at Target Concentration 100” value under setting [5] is listed as 184. In addition, the “interaction data at Target Concentration 300” value under setting [6] worked out at 276. The “interaction data at Target Concentration 1000” value was determined as 269 under setting [7] and 268 under setting [8].
As for “DPAAQECFRAAWRCMQD (linker 7-14 via Phenylene(1,4-NHCOCH2)2 (inferred))”, the “interaction data, BLANK” value amounted to 0 under setting [1] and 0 under setting [2]. In addition, the “interaction data at Target Concentration 10” value under setting [3] is listed as 0. Moreover, under setting [4], the “interaction data at Target Concentration 30” value amounted to 0. In addition, the “interaction data at Target Concentration 100” value under setting [5] was found to be 25. Also, the “interaction data at Target Concentration 300” value under setting [6] was 37. Further, the “interaction data at Target Concentration 1000” value is reported as 34 under setting [7] and 29 under setting [8].
As for “DPAYSDCFQAAWTCMIH (linker 7-14 via Phenylene(1,4-NHCOCH2)2 (inferred))”, the “interaction data, BLANK” value under setting [1] was determined as 0 and the “interaction data, BLANK” value under setting [2] is listed as 0. The “interaction data at Target Concentration 10” value under setting [3] was 0. Under setting [4], the “interaction data at Target Concentration 30” value is listed as 78. For the same sequence, the “interaction data at Target Concentration 100” value under setting [5] is on record as 135. Also, the “interaction data at Target Concentration 300” value under setting [6] came out at 155. Also, the “interaction data at Target Concentration 1000” value runs as follows: under setting [7], 110; under setting [8], 150.
As to “DPAYASCFSAAWDCQFW (linker 7-14 via Phenylene(1,4-NHCOCH2)2 (inferred))”, the “interaction data at Target Concentration 10” value under setting [9] was found to be 0. Under setting [10], the “interaction data at Target Concentration 30” value is on record as 0. Also, the “interaction data at Target Concentration 100” value under setting [11] is listed as 19. Also, the “interaction data at Target Concentration 300” value under setting [12] is on record as 21. Besides, the “interaction data at Target Concentration 1000” value was determined as 13 under setting [13] and 38 under setting [14].
“DPAQEDCHAAAFWCIWD (DPAQEDCHAAAFWCIWD-NH2; linker 7-14 via Phenylene(1,4-NHCOCH2)2 (inferred))”: the “interaction data, BLANK” value reads like this: under setting [1], 0; under setting [2], 0. Besides, the “interaction data at Target Concentration 10” value under setting [3] is 0. Also, under setting [4], the “interaction data at Target Concentration 30” value turned out to be 0. Also, the “interaction data at Target Concentration 100” value under setting [5] worked out at 15. Further, under setting [6], the “interaction data at Target Concentration 300” value is 37. In addition, the “interaction data at Target Concentration 1000” value came out at 23 under setting [7] and 48 under setting [8].
“DPARQDCFSAAWMCMAI (DPARQDCFSAAWMCMAI-NH2; linker 7-14 via Phenylene(1,4-NHCOCH2)2 (inferred))”: the “interaction data, BLANK” value was found to be 0 under setting [1] and 0 under setting [2]. In addition, the “interaction data at Target Concentration 10” value under setting [3] is given as 0. For the same sequence, the “interaction data at Target Concentration 30” value under setting [4] came out at 1. The “interaction data at Target Concentration 100” value under setting [5] is recorded as 94. The “interaction data at Target Concentration 300” value under setting [6] is recorded as 107. Also, the “interaction data at Target Concentration 1000” value came out at 120 under setting [7] and 114 under setting [8].
Regarding “DPAERNCFTAAWQCMVW (linker 7-14 via Phenylene(1,4-NHCOCH2)2 (inferred))”, the “interaction data, BLANK” value by setting is: under setting [1], 0; under setting [2], 0. The “interaction data at Target Concentration 10” value under setting [3] is on record as 0. The “interaction data at Target Concentration 30” value under setting [4] is 23. Further, the “interaction data at Target Concentration 100” value under setting [5] came to 158. Besides, the “interaction data at Target Concentration 300” value under setting [6] is listed as 230. For the same sequence, under setting [7], the “interaction data at Target Concentration 1000” value amounted to 135.
Turning to “DPATESCEDAAFWCHWI (DPATESCEDAAFWCHWI-NH2; linker 7-14 via Phenylene(1,4-NHCOCH2)2 (inferred))”, the “interaction data, BLANK” value was 0 under setting [1] and 0 under setting [2]. Under setting [3], the “interaction data at Target Concentration 10” value was determined as 0. The “interaction data at Target Concentration 30” value under setting [4] is given as 0. In addition, under setting [5], the “interaction data at Target Concentration 100” value came out at 30. In addition, under setting [6], the “interaction data at Target Concentration 300” value stood at 30. Also, the “interaction data at Target Concentration 1000” value under setting [7] amounted to 30 and the “interaction data at Target Concentration 1000” value under setting [8] was found to be 70.
As for “DPADNRCFQAAWDCAFW (linker 7-14 via Phenylene(1,4-NHCOCH2)2 (inferred))”, the “interaction data at Target Concentration 10” value under setting [9] worked out at 1. Besides, the “interaction data at Target Concentration 30” value under setting [10] stood at 0. In addition, the “interaction data at Target Concentration 100” value under setting [11] is listed as 51. The “interaction data at Target Concentration 300” value under setting [12] is on record as 22. Besides, the “interaction data at Target Concentration 1000” value reads like this: under setting [13], 20; under setting [14], 23.
Take “DPASEACFQAAWDCVSW (DPASEACFQAAWDCVSW-NH2; linker 7-14 via Phenylene(1,4-NHCOCH2)2 (inferred))”: the “interaction data at Target Concentration 10” value under setting [9] turned out to be 2. In addition, the “interaction data at Target Concentration 30” value under setting [10] was 57. Under setting [11], the “interaction data at Target Concentration 100” value is reported as 241. Moreover, under setting [12], the “interaction data at Target Concentration 300” value is given as 559. Besides, the “interaction data at Target Concentration 1000” value under setting [13] stood at 336 and the “interaction data at Target Concentration 1000” value under setting [14] amounted to 447.
For the sequence “DPAQSDCFQAAWECVAN (DPAQSDCFQAAWECVAN-NH2; linker 7-14 via Phenylene(1,4-NHCOCH2)2 (inferred))”, the “interaction data, BLANK” value under setting [1] came out at 0 and the “interaction data, BLANK” value under setting [2] was 0. Under setting [3], the “interaction data at Target Concentration 10” value amounted to 0. The “interaction data at Target Concentration 30” value under setting [4] turned out to be 0. Also, the “interaction data at Target Concentration 100” value under setting [5] amounted to 35. For the same sequence, under setting [6], the “interaction data at Target Concentration 300” value turned out to be 47. Moreover, the “interaction data at Target Concentration 1000” value under setting [7] came to 52 and the “interaction data at Target Concentration 1000” value under setting [8] was found to be 29.
With “DPAETDCSQAAFWCYWQ (linker 7-14 via Phenylene(1,4-NHCOCH2)2 (inferred))”, the “interaction data, BLANK” value was found to be 0 under setting [1] and 0 under setting [2]. The “interaction data at Target Concentration 10” value under setting [3] is recorded as 1. Under setting [4], the “interaction data at Target Concentration 30” value is recorded as 15. The “interaction data at Target Concentration 100” value under setting [5] is given as 170. Under setting [6], the “interaction data at Target Concentration 300” value amounted to 133. The “interaction data at Target Concentration 1000” value reads like this: under setting [7], 176; under setting [8], 188.
With “DPAHNLCFDAAWWCHWQ (linker 7-14 via Phenylene(1,4-NHCOCH2)2 (inferred))”, the “interaction data, BLANK” value under setting [1] is listed as 0 and the “interaction data, BLANK” value under setting [2] turned out to be 0. Further, the “interaction data at Target Concentration 10” value under setting [3] worked out at 0. Moreover, under setting [4], the “interaction data at Target Concentration 30” value worked out at 0. Moreover, the “interaction data at Target Concentration 100” value under setting [5] is 9. The “interaction data at Target Concentration 300” value under setting [6] amounted to 7. Moreover, the “interaction data at Target Concentration 1000” value was 8 under setting [7] and 11 under setting [8].
On to “DPAINTCQDAAFWCYWS (linker 7-14 via Phenylene(1,4-NHCOCH2)2 (inferred))”, for which the “interaction data, BLANK” value is reported as 0 under setting [1] and 0 under setting [2]. Further, under setting [3], the “interaction data at Target Concentration 10” value is listed as 0. Under setting [4], the “interaction data at Target Concentration 30” value was determined as 131. Further, under setting [5], the “interaction data at Target Concentration 100” value was 203. In addition, under setting [6], the “interaction data at Target Concentration 300” value was 226. The “interaction data at Target Concentration 1000” value is, setting by setting: under setting [7], 185; under setting [8], 315.
As for “DPAHYECTDAAFECYWF (linker 7-14 via Phenylene(1,4-NHCOCH2)2 (inferred))”, the “interaction data, BLANK” value is, setting by setting: under setting [1], 0; under setting [2], 0. Moreover, the “interaction data at Target Concentration 10” value under setting [3] is on record as 0. Moreover, the “interaction data at Target Concentration 30” value under setting [4] was determined as 2. Further, the “interaction data at Target Concentration 100” value under setting [5] was 33. Besides, under setting [6], the “interaction data at Target Concentration 300” value is listed as 74. The “interaction data at Target Concentration 1000” value came to 57 under setting [7] and 82 under setting [8].
On to “DPAYTQCSDAAFMCWWW (linker 7-14 via Phenylene(1,4-NHCOCH2)2 (inferred))”, for which the “interaction data, BLANK” value under setting [1] amounted to 0 and the “interaction data, BLANK” value under setting [2] worked out at 0. In addition, the “interaction data at Target Concentration 10” value under setting [3] is listed as 0. For the same sequence, the “interaction data at Target Concentration 30” value under setting [4] is 19. Moreover, the “interaction data at Target Concentration 100” value under setting [5] stood at 32. Besides, the “interaction data at Target Concentration 300” value under setting [6] was determined as 48. The “interaction data at Target Concentration 1000” value is, setting by setting: under setting [7], 65; under setting [8], 62.
For “DPAYEDCFFAAWNCMMV (linker 7-14 via Phenylene(1,4-NHCOCH2)2 (inferred))”, the “interaction data, BLANK” value is given as 0 under setting [1] and 0 under setting [2]. In addition, under setting [3], the “interaction data at Target Concentration 10” value amounted to 0. In addition, under setting [4], the “interaction data at Target Concentration 30” value is 5. Moreover, under setting [5], the “interaction data at Target Concentration 100” value is reported as 18. Further, the “interaction data at Target Concentration 300” value under setting [6] amounted to 17. The “interaction data at Target Concentration 1000” value reads like this: under setting [7], 23; under setting [8], 39.
As for “DPALFSCDSAAFSCYWY (linker 7-14 via Phenylene(1,4-NHCOCH2)2 (inferred); not fully specified (C-terminus))”, the “interaction data, BLANK” value under setting [1] amounted to 0 and the “interaction data, BLANK” value under setting [2] stood at 0. Besides, the “interaction data at Target Concentration 10” value under setting [3] is 0. Under setting [4], the “interaction data at Target Concentration 30” value was 0. The “interaction data at Target Concentration 100” value under setting [5] was 25. For the same sequence, under setting [6], the “interaction data at Target Concentration 300” value is on record as 17. Moreover, the “interaction data at Target Concentration 1000” value reads like this: under setting [7], 25; under setting [8], 57.

These data come from patent publication US20240376151A1, “STAPLED PEPTIDES AND METHODS THEREOF” (FOG PHARMACEUTICALS, INC., priority 2022, published 2024).
